B1: phage clone KEADCAWHMGELVWCSEMEG (peptide)
peptide: KEADCAWHMGELVWCSEMEG
notes: M13/gIII phage display; Secondary Optimization
B2: phage clone EVADCSWHLGELVWCTEGEF (peptide)
peptide: EVADCSWHLGELVWCTEGEF
notes: as for B1
B3: phage clone WEEDCAWHLGELVWCAEFDE (peptide)
peptide: WEEDCAWHLGELVWCAEFDE
notes: as for B1
B4: phage clone DLADCSYWLGELVWCSRVEG (peptide)
peptide: DLADCSYWLGELVWCSRVEG
notes: M13/gIII phage display; Focused Libraries
B5: phage clone READCAWHLGELVWCSERDL (peptide)
peptide: READCAWHLGELVWCSERDL
notes: as for B1
B6: phage clone GEASCAYHLGELVWCDEGEG (peptide)
peptide: GEASCAYHLGELVWCDEGEG
notes: as for B1
B7: phage clone WVDCAYHLGELVWCSTFEE (peptide)
peptide: WVDCAYHLGELVWCSTFEE
notes: M13/gIII phage display; Secondary Optimization; printed with 19 residues
B8: phage clone KVADCAWHMGELVWCTEVEG (peptide)
peptide: KVADCAWHMGELVWCTEVEG
notes: as for B1
B9: phage clone RVADCAWHMGELVWCSELEV (peptide)
peptide: RVADCAWHMGELVWCSELEV
notes: as for B1
B10: phage clone EEPDCSWHLGELVMCTPMEV (peptide)
peptide: EEPDCSWHLGELVMCTPMEV
notes: as for B1
B11: phage clone EEPDCSWHLGELVWCTPIEV (peptide)
peptide: EEPDCSWHLGELVWCTPIEV
notes: as for B1
B12: phage clone WVEDCSWHMGELVWCDGGEF (peptide)
peptide: WVEDCSWHMGELVWCDGGEF
notes: as for B4
B13: phage clone EQADCAWHLGELVWCTPMVF (peptide)
peptide: EQADCAWHLGELVWCTPMVF
notes: as for B1
B14: phage clone GEPDCAWHLGELVWCTPMVF (peptide)
peptide: GEPDCAWHLGELVWCTPMVF
notes: as for B1
B15: phage clone KEARCWYWHGELVWCSDPEE (peptide)
peptide: KEARCWYWHGELVWCSDPEE
notes: as for B4
B16: phage clone WVEDCAWHMGELVWCTKVDE (peptide)
peptide: WVEDCAWHMGELVWCTKVDE
notes: as for B1
B17: phage clone EEASCAYHLGELVWCDAFDV (peptide)
peptide: EEASCAYHLGELVWCDAFDV
notes: as for B1
B18: phage clone GEEDCAWHLGELVWCSGGDF (peptide)
peptide: GEEDCAWHLGELVWCSGGDF
notes: as for B1
B19: phage clone RVEDCAYHLGELVWCTEGDE (peptide)
peptide: RVEDCAYHLGELVWCTEGDE
notes: as for B1
B20: phage clone EVEDCAYHLGELVWCSDLEG (peptide)
peptide: EVEDCAYHLGELVWCSDLEG
notes: as for B1
B21: phage clone GEEDCSYHLGELVMCTELDD (peptide)
peptide: GEEDCSYHLGELVMCTELDD
notes: as for B1
B22: phage clone KEASCSYWLGELVWCDGLDE (peptide)
peptide: KEASCSYWLGELVWCDGLDE
notes: as for B4
B23: phage clone KEASCSYWLGELVWCVGLDE (peptide)
peptide: KEASCSYWLGELVWCVGLDE
notes: as for B4
B24: phage clone KEASCSYWLGELVWCDTFDE (peptide)
peptide: KEASCSYWLGELVWCDTFDE
notes: as for B4
B25: phage clone GEADCSYHLGELVWCNDFEE (peptide)
peptide: GEADCSYHLGELVWCNDFEE
notes: as for B1
B26: phage clone KEASCAWHLGELVWCSEVEE (peptide)
peptide: KEASCAWHLGELVWCSEVEE
notes: as for B1
B27: phage clone GEEDCAWHLGELVWCTDVED (peptide)
peptide: GEEDCAWHLGELVWCTDVED
notes: as for B1
B28: phage clone KEADCAWHLGELVWCVAGVE (peptide)
peptide: KEADCAWHLGELVWCVAGVE
notes: as for B4
B29: phage clone KEASCSYWLGELVWCTEGVE (peptide)
peptide: KEASCSYWLGELVWCTEGVE
notes: as for B4
B30: phage clone KEASCSYHLGELVWCVAGVE (peptide)
peptide: KEASCSYHLGELVWCVAGVE
notes: as for B4
B31: phage clone KEASCSYWLGELVWCSPGVE (peptide)
peptide: KEASCSYWLGELVWCSPGVE
notes: as for B4
B32: phage clone KEASCSWHLGELVWCVAGVE (peptide)
peptide: KEASCSWHLGELVWCVAGVE
notes: as for B4
B33: phage clone GEQDCSYHMGELVWCTTVDG (peptide)
peptide: GEQDCSYHMGELVWCTTVDG
notes: as for B1
B34: phage clone GVRNCAYHLGELVWCTPMEF (peptide)
peptide: GVRNCAYHLGELVWCTPMEF
notes: as for B1
B35: phage clone WEADCAWHLGELVWCTKVEE (peptide)
peptide: WEADCAWHLGELVWCTKVEE
notes: as for B1
B36: phage clone AEADCAWHLGELVWCTKVEE (peptide)
peptide: AEADCAWHLGELVWCTKVEE
notes: M13/gIII phage display; ALA Scan on Phage
B37: phage clone WEADCAAHLGELVWCTKVEE (peptide)
peptide: WEADCAAHLGELVWCTKVEE
notes: as for B36
B38: phage clone GEADCAWHLGELVWCTKVEE (peptide)
peptide: GEADCAWHLGELVWCTKVEE
notes: as for B1
B39: phage clone WEADCAWHAGELVWCTKVEE (peptide)
peptide: WEADCAWHAGELVWCTKVEE
notes: as for B36
B40: phage clone WEAACAWHLGELVWCTKVEE (peptide)
peptide: WEAACAWHLGELVWCTKVEE
notes: as for B36
B41: phage clone WEAACSWHLGELVWCTKVEE (peptide)
peptide: WEAACSWHLGELVWCTKVEE
notes: as for B36
B42: phage clone WEADCAWALGELVWCTKVEE (peptide)
peptide: WEADCAWALGELVWCTKVEE
notes: as for B36
B43: phage clone WAADCAWHLGELVWCTKVEE (peptide)
peptide: WAADCAWHLGELVWCTKVEE
notes: as for B36

Tests used:
IgG-Fc [1] = biological target: T1, IgG-Fc (UniProt P01857-1 108-330 = IgG part, limits assumed); experiment: phage ELISA, M13/gIII display
T1 construct: domain: IgG-Fc; also called biotinylated-IgG-Fc; biotin-IgG-Fc

rabbit albumin = rabbit albumin (rabbit, UniProt P49065 25-608); experiment: phage ELISA
Chain of rabbit albumin (P49065 25-608 limits assumed): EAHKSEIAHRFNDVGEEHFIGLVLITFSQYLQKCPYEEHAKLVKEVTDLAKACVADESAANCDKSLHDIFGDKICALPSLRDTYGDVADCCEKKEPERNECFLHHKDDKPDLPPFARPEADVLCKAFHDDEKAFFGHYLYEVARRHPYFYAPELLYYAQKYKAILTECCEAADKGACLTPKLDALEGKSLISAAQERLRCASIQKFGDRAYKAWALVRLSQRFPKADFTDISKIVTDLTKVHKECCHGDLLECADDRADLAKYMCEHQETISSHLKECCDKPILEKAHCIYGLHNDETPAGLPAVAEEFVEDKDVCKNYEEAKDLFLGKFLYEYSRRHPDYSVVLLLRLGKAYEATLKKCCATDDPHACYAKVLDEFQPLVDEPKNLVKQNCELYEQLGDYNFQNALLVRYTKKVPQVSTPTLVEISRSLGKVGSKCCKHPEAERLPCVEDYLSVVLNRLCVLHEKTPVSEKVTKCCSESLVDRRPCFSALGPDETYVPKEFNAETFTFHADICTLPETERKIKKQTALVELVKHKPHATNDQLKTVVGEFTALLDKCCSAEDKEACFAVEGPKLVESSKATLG
Description: (§1) Phage ELISA—Phage clones (˜10¹¹ phage) were added to plates coated with rat, rabbit or human albumin. The microtiter plate was washed with wash buffer and bound phage were detected with HRP/Anti-M13 Conjugate. The amount of HRP bound was measured using ABTS/H₂O₂ substrate and monitoring the change at 405 nm.

human albumin = human albumin (human, UniProt P02768 25-609); experiment: phage ELISA
Description: as §1

IgG-Fc [2] = biological target: T1, IgG-Fc; experiment: phage ELISA, M13/gIII display, ALA scan

| Binder | EC50 (IgG-Fc [1]) | also measured |
| --- | --- | --- |
| B1 | 66 nM | – |
| B2 | 54 nM | – |
| WVEDCSWHLGELVWCVGLDF (M13/gIII phage display; Designed Clones) [phage clone WVEDCSWHLGELVWCVGLDF] | 31 nM | – |
| DFDLCLPDWGCLWDD (phage clone, Library RBC) [RBC-R10] | – | binding result (rabbit albumin): no binding; binding result (human albumin): no binding |
| DTCEDLVRLGLECWA (phage clone, Library RD) [RD-R5] | – | binding result (rabbit albumin): no binding; binding result (human albumin): no binding |
| NTCADLVRLGLECWA (phage clone, Library RD) [RD-R7] | – | binding result (rabbit albumin): no binding; binding result (human albumin): no binding |
| EWDVCFPAWGCLWDQ (phage clone, Library RBC) [RBC-R18] | – | binding result (rabbit albumin): no binding; binding result (human albumin): no binding |
| B3 | 44 nM | – |
| DTCSDLVGLGLECWA (phage clone, Library RD) [RD-R1] | – | binding result (rabbit albumin): no binding; binding result (human albumin): no binding |
| DLADCSWHLGELVWCSRVEG (M13/gIII phage display; Designed Clones) [phage clone DLADCSWHLGELVWCSRVEG] | 9 nM | – |
| B4 | 776 nM | – |
| B5 | 47 nM | – |
| B6 | 386 nM | – |
| B7 | 9 nM | – |
| B8 | 23 nM | – |
| B9 | 44 nM | – |
| B10 | 14 nM | – |
| B11 | 15 nM | – |
| B12 | 139 nM | – |
| B13 | 8 nM | – |
| SEDFCLPVWGCLWED (phage clone, Library RBC) [RBC-R9] | – | binding result (rabbit albumin): no binding; binding result (human albumin): no binding |

| Binder | EC50 (IgG-Fc [1]) | also measured |
| --- | --- | --- |
| WEDLCLPDWGCLWED (phage clone, Library RBC) [RBC-R5] | – | binding result (rabbit albumin): no binding; binding result (human albumin): no binding |
| B14 | 7 nM | – |
| FEDLCVVRWGCLWGD (phage clone, Library RBC) [RBC-R6] | – | binding result (rabbit albumin): no binding; binding result (human albumin): no binding |
| B15 | 809 nM | – |
| DLADCSWHLGELVWCVGLDE (M13/gIII phage display; Designed Clones) [phage clone DLADCSWHLGELVWCVGLDE] | 28 nM | – |
| DTCDDLVQLGLECWA (phage clone, Library RD) [RD-R11] | – | binding result (rabbit albumin): no binding; binding result (human albumin): no binding |
| B16 | 70 nM | – |
| B17 | 77 nM | – |
| B18 | 100 nM | – |
| B19 | 63 nM | – |
| EFDLCLPTWGCLWED (phage clone, Library RBC) [RBC-R13] | – | binding result (rabbit albumin): no binding; binding result (human albumin): no binding |
| B20 | 82 nM | – |
| B21 | 69 nM | – |
| B22 | 326 nM | – |
| B23 | 278 nM | – |
| B24 | 301 nM | – |
| B25 | 156 nM | – |
| EEDVCLPVWGCLWEG (phage clone, Library RBC) [RBC-R20] | – | binding result (rabbit albumin): no binding; binding result (human albumin): no binding |
| MWDVCFPDWGCLWDV (phage clone, Library RBC) [RBC-R15] | – | binding result (rabbit albumin): no binding; binding result (human albumin): no binding |
| VWDLCLPQWGCLWDE (phage clone, Library RBC) [RBC-R11] | – | binding result (rabbit albumin): no binding; binding result (human albumin): no binding |
| B26 | 130 nM | – |

| Binder | EC50 (IgG-Fc [1]) | also measured |
| --- | --- | --- |
| B27 | 52 nM | – |
| B28 | 138 nM | – |
| B29 | 818 nM | – |
| B30 | 416 nM | – |
| B31 | 734 nM | – |
| B32 | 225 nM | – |
| B33 | 210 nM | – |
| B34 | 10 nM | – |
| DSCGDLLRLGLECWA (phage clone, Library RD) [RD-R6] | – | binding result (rabbit albumin): no binding; binding result (human albumin): no binding |
| B35 | 7 nM | – |
| B36 | – | EC50 (IgG-Fc [2]): 20 nM |
| B37 | – | EC50 (IgG-Fc [2]): 798 nM |
| B38 | 38 nM | – |
| B39 | – | EC50 (IgG-Fc [2]): 56 nM |
| B40 | – | EC50 (IgG-Fc [2]): 55 nM |
| B41 | – | EC50 (IgG-Fc [2]): 10 nM |
| B42 | – | EC50 (IgG-Fc [2]): 139 nM |
| B43 | – | EC50 (IgG-Fc [2]): 34 nM |
| NWDLCFPDWGCLWDD (phage clone, Library RBC) [RBC-R8] | – | binding result (rabbit albumin): no binding; binding result (human albumin): no binding |
| MFDLCLPKWGCLWGN (phage clone, Library RBC) [RBC-R12] | – | binding result (rabbit albumin): no binding; binding result (human albumin): no binding |
